Experimental findings from US20190309034A1 (Boehringer Ingelheim, published 2019) are described below.

For assay [1], the target named is Recombinant soluble trimeric human BAFF (furin-cleaved human BAFF 134-285) (human, UniProt Q9Y275 134-285). The assay is described as follows: cell-based or functional assay.
Assay [2] deals with Recombinant soluble 60-mer human BAFF (His-HuBAFF 134-285) (human, UniProt Q9Y275 134-285). The assay is described as follows: cell-based or functional assay.

B1: 394F5A5 (antibody, V domains shown)
VH: VTLKESGPGILQPSQTLSLTCSFSGFSLRTFGMGVGWIRQPSGKGLEWLAHIWWNDEKYYNPTLKSRLTISKDTSKNQVFLRIANVDTAVTAAYYCARIGPSITTVVEGFPYWGQGTLVTVSA
VL: DIVMTQSQKFMSTTIGDRVSITCKASQNVGSAVAWYQQKPGQPPKLLIYSTSNRYTGVPDRFTGSRSGTDFTLTVSNMQSEDLADYFCQQYASYPLTFGTGTKLELK
Consider B1, for which, in assay [1], the “Soluble trimeric huBAFF (50 pM) Neutralization IC50” value stood at 16 pM and the “Soluble trimeric huBAFF (50 pM) Neutralization IC90” value was 433 pM. For the same molecule, in assay [2], the “Soluble 60-mer huBAFF (4 pM) Neutralization IC50” value stood at 7 pM and the “Soluble 60-mer huBAFF (4 pM) Neutralization IC90” value worked out at 29 pM.

B2: 418F6D9 (antibody, V domains shown)
VH: QVQLQQSGPELVKPGASVKLSCKASGYTFTDYSIHWVKQSPGQGLEWIGWIYPGSGNTKYNDKFKGKATMTADKSSRTVYMQLSSLTSEESAVYFCARDYRRYYAIDYWGQGTSVTVSS
VL: IVLTQSSASLAVSLGQRATISCRASESVDSYGNSLMHWYQQKPGQPPKLLIYIASNLESGVPARFSGSGSRTDFTLTIDPVEADDAATYYCQQNSEDPRTFGGGTKLEIK
On to B2, for which, in assay [1], the “Soluble trimeric huBAFF (50 pM) Neutralization IC50” value stood at 38 pM and the “Soluble trimeric huBAFF (50 pM) Neutralization IC90” value was found to be 491 pM. Further, in assay [2], the “Soluble 60-mer huBAFF (4 pM) Neutralization IC50” value was 27 pM and the “Soluble 60-mer huBAFF (4 pM) Neutralization IC90” value stood at 154 pM.

B3: 436H2C12 (antibody, V domains shown)
VH: QVQLQQSGPELVKPGASVKLSCKASGYTFSDYTIHWVKQSPGQGLEWIGWIYPGRGNTKYNDKFKGKATMTADKSSSTAYMQLSSLTSEESAVYFCARDYRRYYAMDYWGQGTSVTVSS
VL: NIVLTQSPASLAVSLGQRATISCRASESVDNYGNSFMHWYQQKPGQPPKLLISLASNLESGVPARFSGSGSRTDFTLTIDPVEADDAATYYCQQNNEDPRTFGGGTKLEIK
Consider B3, for which, in assay [1], the “Soluble trimeric huBAFF (50 pM) Neutralization IC50” value was found to be 27 pM and the “Soluble trimeric huBAFF (50 pM) Neutralization IC90” value is 408 pM. Moreover, in assay [2], the “Soluble 60-mer huBAFF (4 pM) Neutralization IC50” value was 15 pM and the “Soluble 60-mer huBAFF (4 pM) Neutralization IC90” value worked out at 37 pM.

B4: 450A2A7 (antibody, V domains shown)
VH: QVQLQQSGPELVKPGASVKLSCKASGYTFTDYSIHWVKQSPGQGLEWIGWIYPGSDNTKYNDKFKGKASMTADKSSRTVYMHLSSLTSEESAVYFCARDYRRYYAMDYWGQGTSVTVSS
VL: IVLTQSSASLAVSLGQRATISCRASESVDRYGNSLMHWYQQKPGQPPKLLIYIASNLESGVPARFSGSGSRTDFTLTIDPVEADDAATYYCQQNNEDPRTFGGGTKLEIK
Take B4: in assay [1], the “Soluble trimeric huBAFF (50 pM) Neutralization IC50” value worked out at 36 pM and the “Soluble trimeric huBAFF (50 pM) Neutralization IC90” value came to 602 pM. In addition, in assay [2], the “Soluble 60-mer huBAFF (4 pM) Neutralization IC50” value worked out at 24 pM and the “Soluble 60-mer huBAFF (4 pM) Neutralization IC90” value worked out at 130 pM.

B5: 441E6F2 (antibody, V domains shown)
VH: RVQLKESGPGLVAPSQSLFITCTVSGFSLTTYEINWVRQSPGKGLEWLGVIWTGGTTKYNSAFISRLSITKDNSKSLVFLKMSSLQTDDTAIYYCVREGRRYYAMDYWGQGTSVTVSS
VL: NIVLTQSPASLAVSLGQRATISCRTSESVDSYGNSFMFWFQQKPGQAPKLLIFLTSNLESGVPARFSGSGSRTDFTLTIDPVEADDAATYYCQQSNEDPRTFGGGTKLEIK
With B5, in assay [1], the “Soluble trimeric huBAFF (50 pM) Neutralization IC50” value stood at 43 pM and the “Soluble trimeric huBAFF (50 pM) Neutralization IC90” value was 293 pM. Moreover, in assay [2], the “Soluble 60-mer huBAFF (4 pM) Neutralization IC50” value was determined as 16 pM and the “Soluble 60-mer huBAFF (4 pM) Neutralization IC90” value came out at 37 pM.

B6: 444G1A10 (antibody, V domains shown)
VH: RVQLKESGPGLVAPSQSLFITCTVSGFSLTTYEINWVRQSPGKGLEWLGVIWTGGTTKYNSAFISRLSITKDNSKSLVFLKMSSLQTDDTAIYYCVREGRRYYAMDYWGQGTSVTVSS
VL: NIVLTQSPASLAVSLGQRATISCRASESVDSYGNSFMFWFQQKPGQAPKLLIFLTSNLESGVPARFSGSGSRTDFTLTIDRVEADDAATYYCQQSNEDPRTFGGGTKLEIK
On to B6, for which, in assay [1], the “Soluble trimeric huBAFF (50 pM) Neutralization IC50” value is 25 pM and the “Soluble trimeric huBAFF (50 pM) Neutralization IC90” value came to 284 pM. Also, in assay [2], the “Soluble 60-mer huBAFF (4 pM) Neutralization IC50” value came to 12 pM and the “Soluble 60-mer huBAFF (4 pM) Neutralization IC90” value came to 35 pM.

B7: 537G7A6 (antibody, V domains shown)
VH: QVQLKESGPGLVAPSQSLSITCTVSGFSLSRYSVHWIRQSPGKGLEWLGMIWGGGNTDYNSGLKSRLSISKDNSKSQVFLKMNSLENDDTAMYYCASPSLYYYDVAWFPYWGQGTLVTVSA
VL: DIVLTQSPASLAVSVGQRATVSCRVSESVDRYADSFMHWYQQKPGQPPKLLIYLASNLESGVPARFSGSGSRTDFTLTIDPVEADDAATYYCQQNKEDPYTFGGGTKLELK
For the molecule B7, in assay [1], the “Soluble trimeric huBAFF (50 pM) Neutralization IC50” value was 28 pM and the “Soluble trimeric huBAFF (50 pM) Neutralization IC90” value was 329 pM. In assay [2], the “Soluble 60-mer huBAFF (4 pM) Neutralization IC50” value worked out at 13 pM and the “Soluble 60-mer huBAFF (4 pM) Neutralization IC90” value came to 39 pM.

B8: 381A6A9 (antibody, V domains shown)
VH: QVQLQQSGPELVKPGGSVKISCKAAGYSLTSYYIHWVKQRPGQGLEWIGLIFPGSGNSKYIEKFKGKATLTADTSSNTAYMQLSSLTSEDSAVYYCTRGDFGNYLAYWYFDVWGTGTTVTVSS
VL: DIKMTQSPSSIYASLGERVTITCKASQDINSYLSWFQQKPGKSPKTLMYRANRLVDGVPSRFSGSGSGQDYSLTISSLEYEDMGNYYCLQYDEFPYTFGGGAKLEIK
Consider B8, for which, in assay [1], the “Soluble trimeric huBAFF (50 pM) Neutralization IC50” value turned out to be 44 pM and the “Soluble trimeric huBAFF (50 pM) Neutralization IC90” value was found to be 240 pM. Moreover, in assay [2], the “Soluble 60-mer huBAFF (4 pM) Neutralization IC50” value was 17 pM and the “Soluble 60-mer huBAFF (4 pM) Neutralization IC90” value was found to be 42 pM.

B9: 435A6B3 (antibody, V domains shown)
VH: EVQLQQSGPELVKPGASMKMSCKASGYTFTSYVMHWMKQKPGQGLEWIGYLNPNNDGTKYNEKFKGKATLTSDKSSSTAYMELSSLTSEDSAVYYCARGDYSNYFYWYFDVWGAGTTVSVSS
VL: DIKMTPSPSSMYASLGERVTITCKASQDINRYLSWFQQKPGKSPKTLIYRANRLVDGVPSRFSGSGSGQDYSLTISSLEYEDMGIYYCLQYDEFPYTFGGGTKLEIK
Turning to B9, in assay [1], the “Soluble trimeric huBAFF (50 pM) Neutralization IC50” value stood at 23 pM and the “Soluble trimeric huBAFF (50 pM) Neutralization IC90” value was 294 pM. In assay [2], the “Soluble 60-mer huBAFF (4 pM) Neutralization IC50” value was determined as 10 pM and the “Soluble 60-mer huBAFF (4 pM) Neutralization IC90” value was 26 pM.

B10: 443C11A12 (antibody, V domains shown)
VH: EVQLQQSGPELVKPGASVKMSCTASGYTFTSYVIHWMKQKPGQGLEWIGYLHRNNDGTKYNEKFKVKATLTSDESSNTAYMELSSLTSEDSAVYYCARGDYSNYFYWYFDVWGAGTTVSVSS
VL: DIKMTPSPSSMYASLGERVTITCKASQDINSYLSWFQQKPGKSPKTLIYRANRLVDGVPSRFSGSGSGQDYSLTISSLEYEDMGIYYCLQYDEFPYTSGGGTKLEIK
For the molecule B10, in assay [1], the “Soluble trimeric huBAFF (50 pM) Neutralization IC50” value is 33 pM and the “Soluble trimeric huBAFF (50 pM) Neutralization IC90” value was 309 pM. For the same molecule, in assay [2], the “Soluble 60-mer huBAFF (4 pM) Neutralization IC50” value amounted to 13 pM and the “Soluble 60-mer huBAFF (4 pM) Neutralization IC90” value was 30 pM.

B11: 384D5A2 (antibody, V domains shown)
VH: QVTLKESGPGILQPSQTLSLTCSFSGFSLNTYGMGVGWIRQPSGKGLEWLANIWWNDDKYYNSALKSRLAISKDASNSQVFLKISSVDTTDTATYYCAQVAATIVTTYGAWFAYWGQGTLVTVSA
VL: DIQMTQSPASLSVSVGETVTITCRSSENIYSSLAWYQQKQGKSPQLLVYAATNLAKGVPSRFSGSGSGTQYSLKINSLQSEDFGSYFCQHFWGSPFAFGSGTKLEIK
B11: in assay [1], the “Soluble trimeric huBAFF (50 pM) Neutralization IC50” value worked out at 42 pM and the “Soluble trimeric huBAFF (50 pM) Neutralization IC90” value was 765 pM. In addition, in assay [2], the “Soluble 60-mer huBAFF (4 pM) Neutralization IC50” value was found to be 15 pM and the “Soluble 60-mer huBAFF (4 pM) Neutralization IC90” value stood at 44 pM.

B12: 409F12A11 (antibody, V domains shown)
VH: IQLQQSGPELVKPGASMKISCKASGYTFTDKYINWVKQRPGQGLEWIGWIYPGSGNTKYNEKFKGMATLTVDTSSNTAYIHLSSLTSEDSAVYFCARGIIYYYDGSYPYALDYWGQGTSVTVSS
VL: DIVLTQSPASLALSLGQRATISCRATKGVSKSGYSYMHWYQQKPGQPPKLLIYLASNLESGVPARFSGSGSGTDFTLNIHPVEEEDVATYYCQHSRELPLTFGAGTKLELK
As for B12, in assay [1], the “Soluble trimeric huBAFF (50 pM) Neutralization IC50” value came out at 31 pM and the “Soluble trimeric huBAFF (50 pM) Neutralization IC90” value amounted to 390 pM. In assay [2], the “Soluble 60-mer huBAFF (4 pM) Neutralization IC50” value is 16 pM and the “Soluble 60-mer huBAFF (4 pM) Neutralization IC90” value came out at 44 pM.

B13: 436H6A9 (antibody, V domains shown)
VH: QLQQSGPELVKPGASVKISCKASGYTFTDNFINWVKQRPGQGLEWIGWISPGSGNTKNNEKFKGKATVTVDTSSSTAYMQLSSLTSEDSAVYFCARGIIYYYDGTYPYALDYWGQGTSVTVSS
VL: DIVLTQSPASLGVSLGQRATISCRATKGVTKSGYSYIHWYQQKPGQPPKLLIYLASNLQSGVPARFSGSGSGTDFTLNIHPVEEEDAATYYCQHSRELPLTFGAGTKLELK
As to B13, in assay [1], the “Soluble trimeric huBAFF (50 pM) Neutralization IC50” value amounted to 26 pM and the “Soluble trimeric huBAFF (50 pM) Neutralization IC90” value was 266 pM. In assay [2], the “Soluble 60-mer huBAFF (4 pM) Neutralization IC50” value was 10 pM and the “Soluble 60-mer huBAFF (4 pM) Neutralization IC90” value was found to be 27 pM.

B14: 440E9D12 (antibody, V domains shown)
VH: QVRLRESGPGLVAPSQNLFITCTVSGFSLTDYEINWVRQPPGKNLEWLGVIWTGGGTKYNSVLISRLNISKDNSKRQVFFKMTSLQTDDTAIYYCVREGRRYYAMDYWGQGTSVTVSS
VL: NIVLTQSPASLPVSLGQRATMSCRASKSVDSYGTSFMHWYQHRPGQPPKLLISLASNLESGVPGRFSGSGSRTDFTLTIDPVEPDDAATYYCQQNNEDPRTFGGGTTLEIK
B14: in assay [1], the “Soluble trimeric huBAFF (50 pM) Neutralization IC50” value turned out to be 31 pM and the “Soluble trimeric huBAFF (50 pM) Neutralization IC90” value was determined as 259 pM. Moreover, in assay [2], the “Soluble 60-mer huBAFF (4 pM) Neutralization IC50” value was 11 pM and the “Soluble 60-mer huBAFF (4 pM) Neutralization IC90” value was determined as 31 pM.

B15: 431G5A3 (antibody, V domains shown)
VH: QLQQSGPELVKPGASVKLSCKASGYTFTDYSIHWVKQSPGQGLEWIGWIYPGSDNTKYNDKFKGKASMTADKSSRTVYMHLSSLTSEESAVYFCARDYRRYYAMDYWGQGTSVTVSS
VL: KIVLTQSSASLAVSLGQRATISCRASESVDRYGNSLMHWYQQKPGQPPKLLIYIASNLESGVPARFSGSGSRTDFTLTIDPVEADDAATYYCQQNNEDPRTFGGGTKLEIK
In the case of B15, in assay [1], the “Soluble trimeric huBAFF (50 pM) Neutralization IC50” value turned out to be 28 pM and the “Soluble trimeric huBAFF (50 pM) Neutralization IC90” value turned out to be 336 pM. Moreover, in assay [2], the “Soluble 60-mer huBAFF (4 pM) Neutralization IC50” value is 21 pM and the “Soluble 60-mer huBAFF (4 pM) Neutralization IC90” value turned out to be 100 pM.
